# Assay results taken from paper PMC8488193, “Characterization of a Novel Glutamine Synthetase From Trichinella spiralis and Its Participation in Larval Acid Resistance, Molting, and Development” (Frontiers in Cell and Developmental Biology, 2021).
# Legend:
# rTsGS = molecular target: T1, rTsGS (Trichinella spiralis, UniProt A0ABR3KY69); assay: phosphate release, absorbance at […] nm, with inhibitor; type: biochemical; settings: substrates Glu, ATP, NH4+
# T1 construct: gene TSPI_06310
# T1 sequence (A0ABR3KY69 1-365): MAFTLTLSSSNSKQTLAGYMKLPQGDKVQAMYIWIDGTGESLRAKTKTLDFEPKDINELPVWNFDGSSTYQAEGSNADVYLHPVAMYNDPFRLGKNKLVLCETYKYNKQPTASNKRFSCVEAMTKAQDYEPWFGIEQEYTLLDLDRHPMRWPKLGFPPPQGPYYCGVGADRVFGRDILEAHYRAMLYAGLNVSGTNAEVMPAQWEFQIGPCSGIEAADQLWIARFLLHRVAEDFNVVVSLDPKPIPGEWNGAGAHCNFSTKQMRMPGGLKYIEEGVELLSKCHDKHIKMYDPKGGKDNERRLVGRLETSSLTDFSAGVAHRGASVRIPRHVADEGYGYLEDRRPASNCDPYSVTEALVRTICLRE
# N[C@@H](CCC(=O)O)C(=O)O = assay: purified protein; type: biochemical, Trichinella spiralis; settings: pH 7.0, 45 °C, 100 mM Mg2+, ATP and NH4+ as co-substrates, range 0.5-5 mM
# N = assay: purified protein; settings: pH 7.0, 45 °C, 100 mM Mg2+, glutamate and ATP as co-substrates, range 0.5-5 mM
Compound,inhibition at 10% glufosinate (rTsGS),Km (N[C@@H](CCC(=O)O)C(=O)O) [mM],Km (N) [mM]
CP(=O)(O)CCC(N)C(=O)O (stereo not drawn) [glufosinate],Both EDTA and glufosinate could inhibit the rTsGS enzyme activity,,
rTsGS (Trichinella spiralis),,0.20,0.17
